Values quoted from earlier work, collected in PMC7005313.

Biological target: Tyr99 (UniProt position 100, KDGNGYISAAE)
Assay: fluorescence
Conditions: not stated (the title of the cited paper refers to calcium and pH dependence)

Substance: Calmodulin (bovine testes) (Bos taurus)
- pKa: as low as 7.0
